This note sets out measurements from US20200384066A1.

The test deals with angiogenin (UniProt P03950). The test can be described thus: phage ELISA; angiogenin coated at 4 ug/mL, negative control phage, anti-g8p antibody and HRP secondary.
angiogenin, sequence (P03950 25-147 limits assumed): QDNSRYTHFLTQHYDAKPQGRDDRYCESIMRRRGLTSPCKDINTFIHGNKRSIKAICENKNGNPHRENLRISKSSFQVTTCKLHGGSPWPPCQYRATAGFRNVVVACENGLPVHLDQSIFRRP

wild type phage showed an OD value (450 nm) of 0.191 OD.
